According to PMC7076015 (2020):

Molecular target: MBP-KPNA7(P339A) (human, UniProt A9QM74 1-516, P339A)

## RGGNVGGKRKADGYNQPDSKRRQTN (domain or fragment) [GST-GFP-hnRNP R bipartite NLS]
  Kd: ~157 nM
